B1: HNF4A (parent)
chain: RFSRQCVVDKDKRNQCRYCRLKKC

Variants of: B1
Assay: protein stability index of a GFP-peptide fusion (GPS, HEK-293T) (PSI 1-6); higher = more stable
Details: c terminus: a fixed tail appended
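Also: lentivirally expressed fusions sorted by FACS into six bins by GFP to DsRed ratio, PSI derived from sequencing read proportions per bin multiplied by bin number.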

| Variant | protein stability index |
| --- | --- |
| RFSRQCVVDCDKRNQCRYCRLKKC | 2.25 |
| RFSRQCVVDYDKRNQCRYCRLKKC | 2.82 |
| RFSRQCVVDMDKRNQCRYCRLKKC | 2.9 |
| RFSRQCVVDFDKRNQCRYCRLKKC | 1.98 |
| RFSRQCVVDQDKRNQCRYCRLKKC | 2.95 |
| RFSRQCVVDRDKRNQCRYCRLKKC | 2.78 |
| RFSRQCVVDNDKRNQCRYCRLKKC | 2.43 |
| RFSRQCVVDPDKRNQCRYCRLKKC | 2.8 |
| RFSRQCVVDGDKRNQCRYCRLKKC | 2.55 |
| RFSRQCVVDSDKRNQCRYCRLKKC | 2.02 |
| RFSRQCVVDWDKRNQCRYCRLKKC | 2.59 |
| RFSRQCVVDIDKRNQCRYCRLKKC | 1.75 |
| RFSRQCVVDTDKRNQCRYCRLKKC | 2.41 |
| RFSRQCVVDEDKRNQCRYCRLKKC | 2.14 |
| RFSRQCVVDLDKRNQCRYCRLKKC | 2.37 |
| RFSRQCVVDDDKRNQCRYCRLKKC | 2.49 |
| RFSRQCVVDHDKRNQCRYCRLKKC | 2.79 |
| RFSRQCVVDVDKRNQCRYCRLKKC | 2.47 |
| RFSRQCVVDADKRNQCRYCRLKKC | 1.7 |
| RFSRQFVVDKDKRNQCRYCRLKKC | 2.89 |
| RFSRQTVVDKDKRNQCRYCRLKKC | 2.29 |
| RFSRQPVVDKDKRNQCRYCRLKKC | 2.72 |
| RFSRQNVVDKDKRNQCRYCRLKKC | 2.86 |
| RFSRQAVVDKDKRNQCRYCRLKKC | 3.24 |

| Variant | protein stability index |
| --- | --- |
| RFSRQKVVDKDKRNQCRYCRLKKC | 3.17 |
| RFSRQLVVDKDKRNQCRYCRLKKC | 1.99 |
| RFSRQYVVDKDKRNQCRYCRLKKC | 2.32 |
| RFSRQQVVDKDKRNQCRYCRLKKC | 3.36 |
| RFSRQSVVDKDKRNQCRYCRLKKC | 2.72 |
| RFSRQIVVDKDKRNQCRYCRLKKC | 2.33 |
| RFSRQGVVDKDKRNQCRYCRLKKC | 2.87 |
| RFSRQMVVDKDKRNQCRYCRLKKC | 2 |
| RFSRQDVVDKDKRNQCRYCRLKKC | 2.47 |
| RFSRQHVVDKDKRNQCRYCRLKKC | 2.77 |
| RFSRQRVVDKDKRNQCRYCRLKKC | 2.6 |
| RFSRQWVVDKDKRNQCRYCRLKKC | 1.29 |
| RFSRQEVVDKDKRNQCRYCRLKKC | 2.82 |
| RFSRQVVVDKDKRNQCRYCRLKKC | 2.62 |
| RFSRSCVVDKDKRNQCRYCRLKKC | 2.96 |
| RFSRVCVVDKDKRNQCRYCRLKKC | 2.26 |
| RFSRFCVVDKDKRNQCRYCRLKKC | 2.18 |
| RFSRTCVVDKDKRNQCRYCRLKKC | 2.16 |
| RFSRPCVVDKDKRNQCRYCRLKKC | 2.39 |
| RFSRNCVVDKDKRNQCRYCRLKKC | 2.6 |
| RFSRYCVVDKDKRNQCRYCRLKKC | 2.22 |
| RFSRWCVVDKDKRNQCRYCRLKKC | 2.4 |
| RFSRMCVVDKDKRNQCRYCRLKKC | 3.11 |
| RFSRECVVDKDKRNQCRYCRLKKC | 3.29 |

| Variant | protein stability index |
| --- | --- |
| RFSRACVVDKDKRNQCRYCRLKKC | 2.24 |
| RFSRLCVVDKDKRNQCRYCRLKKC | 2.56 |
| RFSRCCVVDKDKRNQCRYCRLKKC | 2.04 |
| RFSRHCVVDKDKRNQCRYCRLKKC | 2.5 |
| RFSRICVVDKDKRNQCRYCRLKKC | 2.16 |
| RFSRDCVVDKDKRNQCRYCRLKKC | 2.3 |
| RFSRRCVVDKDKRNQCRYCRLKKC | 2.83 |
| RFSRGCVVDKDKRNQCRYCRLKKC | 2.38 |
| RFSRKCVVDKDKRNQCRYCRLKKC | 2.43 |
| RFSRQCVVDKAKRNQCRYCRLKKC | 2.28 |
| RFSRQCVVDKCKRNQCRYCRLKKC | 3.51 |
| RFSRQCVVDKEKRNQCRYCRLKKC | 2.19 |
| RFSRQCQVDKDKRNQCRYCRLKKC | 2.05 |
| RFSRQCSVDKDKRNQCRYCRLKKC | 2.1 |
| RFSRQCCVDKDKRNQCRYCRLKKC | 2.62 |
| RFSRQCEVDKDKRNQCRYCRLKKC | 2.05 |
| RFSRQCTVDKDKRNQCRYCRLKKC | 2.73 |
| RFSRQCKVDKDKRNQCRYCRLKKC | 2.6 |
| RFSRQCIVDKDKRNQCRYCRLKKC | 2.13 |
| RFSRQCYVDKDKRNQCRYCRLKKC | 2.93 |
| RFSRQCMVDKDKRNQCRYCRLKKC | 2.41 |
| RFSRQCHVDKDKRNQCRYCRLKKC | 2.38 |
| RFSRQCNVDKDKRNQCRYCRLKKC | 2.21 |
| RFSRQCDVDKDKRNQCRYCRLKKC | 4.05 |

| Variant | protein stability index |
| --- | --- |
| RFSRQCAVDKDKRNQCRYCRLKKC | 2.4 |
| RFSRQCRVDKDKRNQCRYCRLKKC | 2.4 |
| RFSRQCWVDKDKRNQCRYCRLKKC | 2.47 |
| RFSRQCPVDKDKRNQCRYCRLKKC | 2.96 |
| RFSRQCLVDKDKRNQCRYCRLKKC | 2.48 |
| RFSRQCGVDKDKRNQCRYCRLKKC | 2.37 |
| RFSRQCFVDKDKRNQCRYCRLKKC | 1.94 |
| RFSRQCVVSKDKRNQCRYCRLKKC | 2.92 |
| RFSRQCVVGKDKRNQCRYCRLKKC | 3.04 |
| RFSRQCVVFKDKRNQCRYCRLKKC | 2.13 |
| RFSRQCVVRKDKRNQCRYCRLKKC | 3.01 |
| RFSRQCVVLKDKRNQCRYCRLKKC | 1.92 |
| RFSRQCVVKKDKRNQCRYCRLKKC | 2.13 |
| RFSRQCVVAKDKRNQCRYCRLKKC | 2.07 |
| RFSRQCVVTKDKRNQCRYCRLKKC | 2.27 |
| RFSRQCVVMKDKRNQCRYCRLKKC | 3.42 |
| RFSRQCVVPKDKRNQCRYCRLKKC | 2.48 |
| RFSRQCVVEKDKRNQCRYCRLKKC | 2.52 |
| RFSRQCVVCKDKRNQCRYCRLKKC | 2.69 |
| RFSRQCVVIKDKRNQCRYCRLKKC | 2.12 |
| RFSRQCVVYKDKRNQCRYCRLKKC | 2.33 |
| RFSRQCVVNKDKRNQCRYCRLKKC | 2.67 |
